Data as given in paper PMC8892516, “Intragenic suppressors unravel the role of the SCREAM ACT-like domain for bHLH partner selectivity in stomatal development” (Proceedings of the National Academy of Sciences of the …, 2022).
Residue numbers refer to the chain shown, from its start. Numbers in names are those of the source.

T1: SCRM ACTL (405-494) (Arabidopsis thaliana, UniProt Q9LSE2 405-494)
T1 construct: SCREAM (SCRM, ICE1), Arabidopsis thaliana, At3G26744, ACT-like domain, residues 405-494; also called SCRM ACTL domain; source: E. coli BL21, purified (glutathione resin, thrombin, Superdex-200); not shown: GST, N-terminal, cleaved
T1 sequence (looked up): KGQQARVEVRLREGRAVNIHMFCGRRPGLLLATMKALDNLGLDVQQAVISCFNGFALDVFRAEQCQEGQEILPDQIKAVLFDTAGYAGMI

T2: GST-fused SCRM (1-494) (Arabidopsis thaliana, UniProt Q9LSE2 1-494)
T2 construct: SCREAM (SCRM, ICE1), Arabidopsis thaliana, At3G26744, residues 1-494; GST kept for loading on anti-GST probes; also called GST SCRM; GST-tagged SCRM; source: E. coli BL21, purified (glutathione agarose resin); not shown: GST, N-terminal, kept
T2 sequence (looked up): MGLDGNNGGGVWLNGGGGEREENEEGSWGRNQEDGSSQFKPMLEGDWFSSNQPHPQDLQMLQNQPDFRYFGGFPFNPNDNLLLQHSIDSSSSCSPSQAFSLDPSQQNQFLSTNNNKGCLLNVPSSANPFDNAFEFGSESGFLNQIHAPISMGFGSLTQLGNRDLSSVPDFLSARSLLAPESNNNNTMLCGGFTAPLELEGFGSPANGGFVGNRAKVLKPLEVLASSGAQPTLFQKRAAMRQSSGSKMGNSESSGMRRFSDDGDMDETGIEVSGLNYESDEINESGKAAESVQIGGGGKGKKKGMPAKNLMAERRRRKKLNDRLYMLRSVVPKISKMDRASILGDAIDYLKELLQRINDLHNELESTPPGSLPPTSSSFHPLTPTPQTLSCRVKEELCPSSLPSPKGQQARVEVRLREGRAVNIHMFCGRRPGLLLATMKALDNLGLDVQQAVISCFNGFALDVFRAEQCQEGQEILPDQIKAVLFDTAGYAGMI

T3: SCRM (1-494), recombinant (Arabidopsis thaliana, UniProt Q9LSE2 1-494)
T3 construct: SCREAM (SCRM, ICE1), Arabidopsis thaliana, At3G26744, residues 1-494; the purification methods tell thrombin cleavage; source: E. coli BL21, purified (glutathione resin, thrombin, Superdex-200); not shown: GST, N-terminal, cleaved
T3 sequence (looked up): T2 sequence (looked up)

T4: GST-fused SCRMΔC (1-404) (Arabidopsis thaliana, UniProt Q9LSE2 1-404)
T4 construct: SCREAM (SCRM, ICE1), Arabidopsis thaliana, At3G26744, residues 1-404; GST kept for loading on anti-GST probes; also called GST SCRMΔC; SCRM1ΔC; source: E. coli BL21, purified (glutathione agarose resin); not shown: GST, N-terminal, kept
T4 sequence (looked up): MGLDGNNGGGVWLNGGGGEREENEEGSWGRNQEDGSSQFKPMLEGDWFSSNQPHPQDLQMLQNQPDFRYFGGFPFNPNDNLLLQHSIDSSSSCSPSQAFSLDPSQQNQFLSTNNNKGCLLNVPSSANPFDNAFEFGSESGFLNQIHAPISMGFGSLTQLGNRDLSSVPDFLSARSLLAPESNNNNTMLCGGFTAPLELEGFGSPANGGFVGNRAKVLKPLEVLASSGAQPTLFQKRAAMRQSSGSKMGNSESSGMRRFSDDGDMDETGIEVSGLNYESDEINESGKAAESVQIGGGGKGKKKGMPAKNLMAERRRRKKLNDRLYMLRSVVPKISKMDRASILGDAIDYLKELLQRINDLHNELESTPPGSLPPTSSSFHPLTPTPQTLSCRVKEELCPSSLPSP

T5: SPCH-ACTL (285-364) (Arabidopsis thaliana, UniProt Q700C7 285-364)
T5 construct: also called SPCH ACTL domain; source: E. coli BL21, purified (glutathione resin, thrombin, Superdex-200); not shown: GST, N-terminal, cleaved
T5 sequence (looked up): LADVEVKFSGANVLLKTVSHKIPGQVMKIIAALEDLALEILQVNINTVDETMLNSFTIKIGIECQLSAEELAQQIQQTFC

B1: MUTE-ACTL (114-202) (domain or fragment, Arabidopsis thaliana, UniProt Q9M8K6 114-202, looked up)
chain: HANVEAKISGSNVVLRVVSRRIVGQLVKIISVLEKLSFQVLHLNISSMEETVLYFFVVKIGLECHLSLEELTLEVQKSFVSDEVIVSTN
notes: MUTE, Arabidopsis thaliana, ACT-like domain, residues 114-202; source: E. coli BL21, purified (glutathione resin, thrombin, Superdex-200); not shown: GST, N-terminal, cleaved
B2: MUTE (1-202), recombinant (natural protein, Arabidopsis thaliana, UniProt Q9M8K6 1-202, looked up)
chain: MSHIAVERNRRRQMNEHLKSLRSLTPCFYIKRGDQASIIGGVIEFIKELQQLVQVLESKKRRKTLNRPSFPYDHQTIEPSSLGAATTRVPFSRIENVMTTSTFKEVGACCNSPHANVEAKISGSNVVLRVVSRRIVGQLVKIISVLEKLSFQVLHLNISSMEETVLYFFVVKIGLECHLSLEELTLEVQKSFVSDEVIVSTN
notes: MUTE, Arabidopsis thaliana, residues 1-202; MUTE (1-202) was cloned both in pGEX-4T-1 (N-terminal GST, thrombin cleaved) and in pET28a (N-terminal His tag); also called purified MUTE; MUTE-HIS; source: E. coli BL21, purified (Ni-NTA, Superdex-200)
B3: ΔNSPCH (98-364), recombinant (domain or fragment, Arabidopsis thaliana, UniProt Q700C7 98-364, looked up)
chain: GQQKMSHVTVERNRRKQMNEHLTVLRSLMPCFYVKRGDQASIIGGVVEYISELQQVLQSLEAKKQRKTYAEVLSPRVVPSPRPSPPVLSPRKPPLSPRINHHQIHHHLLLPPISPRTPQPTSPYRAIPPQLPLIPQPPLRSYSSLASCSSLGDPPPYSPASSSSSPSVSSNHESSVINELVANSKSALADVEVKFSGANVLLKTVSHKIPGQVMKIIAALEDLALEILQVNINTVDETMLNSFTIKIGIECQLSAEELAQQIQQTFC
notes: BLI and ITC name it only SPCH; ΔNSPCH (98-364) is the only long recombinant SPCH construct that the methods list; also called purified SPCH; source: E. coli BL21, purified (glutathione resin, thrombin, Superdex-200); not shown: GST, N-terminal, cleaved
B4: SCRM ACTL L484F (405-494) (domain or fragment, Arabidopsis thaliana, UniProt Q9LSE2 405-494, looked up)
chain: T1 sequence (looked up) with L80F
notes: SCREAM (SCRM, ICE1), Arabidopsis thaliana, At3G26744, C-terminal ACT-like domain, residues 405-494, with L484F (the methods print L485F); also called SCRM L484F ACTL; source: E. coli BL21, purified (glutathione resin, Superdex-200)
B5: ΔNFAMA, recombinant (domain or fragment)
chain: ESQRMTHIAVERNRRKQMNEHLRVLRSLMPGSYVQRGDQASIIGGAIEFVRELEQLLQCLESQKRRRILGETGRDMTTTTTSSSSPITTVANQAQPLIITGNVTELEGGGGLREETAENKSCLADVEVKLLGFDAMIKILSRRRPGQLIKTIAALEDLHLSILHTNITTMEQTVLYSFNVKITSETRFTAEDIASSIQQIFSFIHANTNISGSSNLGNIVFT
modifications: Limits not printed. Start set by analogy with the printed ΔNSPCH 98-364, which starts one residue before its annotated bHLH (99); FAMA bHLH is 194-245. Runs to the native C-terminus, including the …
B6: SCRMΔC (1-404), recombinant (domain or fragment, Arabidopsis thaliana, UniProt Q9LSE2 1-404, looked up)
chain: T4 sequence (looked up)
notes: SCREAM (SCRM, ICE1), Arabidopsis thaliana, At3G26744, residues 1-404; the purification methods tell thrombin cleavage; also called SCRM1ΔC; source: E. coli BL21, purified (glutathione resin, thrombin, Superdex-200); not shown: GST, N-terminal, cleaved

Assays:
SCRM ACTL (405-494) = target: T1, SCRM ACTL (405-494); test: ITC; Malvern PEAQ-ITC, 25 °C, PBS pH 7.4; 150 μM SCRM ACTL/SCRM L484F ACTL injected into 15 μM SPCH ACTL/MUTE ACTL; conditions: both partners purified
[1] = target: GST-fused SCRMΔC (1-404) (Arabidopsis thaliana) (UniProt Q9LSE2); test: BLI; as a3, samples incubated for 30 min with a 1:4 molar ratio of the TMM promoter DNA fragment
[2] = target: GST-fused SCRMΔC (1-404) (Arabidopsis thaliana) (UniProt Q9LSE2); test: BLI; as a3, samples incubated for 30 min with a 1:4 molar ratio of the synthetic E-box DNA fragment
GST-fused SCRM (1-494) = target: T2, GST-fused SCRM (1-494); test: BLI; Octet Red96; anti-GST probes loaded with 500 nM GST-SCRM or GST-SCRMΔC; SPCH/MUTE/FAMA as analyte at 3.12-200 nM; 30 °C; 1x PBS with 0.02% Tween 20; no DNA; 1:1 model; conditions: both partners purified
[3] = target: T3, SCRM (1-494), recombinant; test: ITC; Malvern PEAQ-ITC, 25 °C, PBS pH 7.4; 40 μM SCRM/SCRMΔC injected into 4 μM SPCH/MUTE/FAMA; single binding site model; conditions: both partners purified
GST-fused SCRMΔC (1-404) = target: T4, GST-fused SCRMΔC (1-404); test: BLI; Octet Red96; anti-GST probes loaded with 500 nM GST-SCRM or GST-SCRMΔC; SPCH/MUTE/FAMA as analyte at 3.12-200 nM; 30 °C; 1x PBS with 0.02% Tween 20; no DNA; 1:1 model; conditions: both partners purified
[4] = target: B6; test: ITC; Malvern PEAQ-ITC, 25 °C, PBS pH 7.4; 40 μM SCRM/SCRMΔC injected into 4 μM SPCH/MUTE/FAMA; single binding site model; conditions: both partners purified
SPCH-ACTL (285-364) = target: T5, SPCH-ACTL (285-364); test: ITC; Malvern PEAQ-ITC; 150 µM SCRM ACTL/SCRM L484F ACTL injected into 15 µM SPCH ACTL/MUTE ACTL; PBS, pH 7.2 (Table S3; methods: pH 7.4); 25 °C; means of two experiments; conditions: both partners purified
ΔNFAMA, recombinant = target: B5; test: ITC; Malvern PEAQ-ITC, 25 °C, PBS pH 7.4; 40 μM SCRM/SCRMΔC injected into 4 μM SPCH/MUTE/FAMA; single binding site model; conditions: both partners purified
[5] = target: B3; test: as above; conditions: both partners purified

Kd (GST-fused SCRM (1-494)) | Kd [3] | Kd (GST-fused SCRMΔC (1-404)) | Kd [4] | Binder | other results
 |  |  |  | B1 | Kd (SCRM ACTL (405-494)): 5.1 µM
7.3 ± 1.5 nM | 10.5 ± 2.1 nM |  |  | B2 | Kd [1]: 565 nM; Kd [2]: 545 nM
5.2 ± 1.1 nM | 6.5 ± 1.6 nM | 68 ± 5.5 nM | 61 ± 4.2 nM | B3 | 
 |  |  |  | B4 | stoichiometry N (SPCH-ACTL (285-364)): 0.85
8.2 ± 2.1 nM | 9.6 ± 1.4 nM | 52 ± 3.6 nM | 68 ± 5.2 nM | B5 | 
 |  |  |  | B6 | stoichiometry N (ΔNFAMA, recombinant): 1; stoichiometry N [5]: 1
